2 molecules from patent publication US20130196320A1, “METHOD FOR IMPROVING CLEAVAGE OF DNA BY ENDONUCLEASE SENSITIVE TO METHYLATION” (CELLECTIS, priority 2010, published 2013) can be followed below.

For test [1], the system named is RAG target in human RAG1 gene, 293H cells. Put plainly: Meganuclease-induced mutagenesis assay at RAG recognition site. In kind it is cell-based. The conditions noted are these: Empty vector, 1 μM 5-aza-2′-deoxycytidine, RAG locus. The procedure: The human 293H cells (ATCC) were plated at a density of 1.2×10^6 cells per 10 cm dish in complete medium (DMEM supplemented with 2 mM L-glutamine, penicillin (100 IU/ml), streptomycin (100 μg/ml), amphotericin B (Fongizone: 0.25 μg/ml, Invitrogen-Life Science) and 10% FBS). The cells were pre-treated with 5-aza-deoxycytidine at 0.2 μM or 1 μM, 48 hours before transfection and the treatment was maintained 48 hours post-transfection. The medium was changed every day. The cells were transfected with 3 μg of DNA plasmids encoding meganuclease for RAG or 2.5 μg of each monomer CAPNS1 using Lipofectamine 2000 transfection reagent (Invitrogen) according to the manufacturer's protocol.
The efficiency of the meganuclease to promote mutagenesis at its endogenous recognition site was evaluated by sequencing the DNA surrounding the meganuclease cleavage site. Two days post-transfection, genomic DNA was extracted. 200 ng of genomic DNA were used to amplify (PCR amplification) the endogenous locus surrounding the meganuclease cleavage site. PCR amplification is performed to obtain a fragment flanked by specific adaptor sequences [adaptor A: 5′-[…]-NNNN-3′(SEQ ID NO: 46) and adaptor B, 5′-[…]-3′ (SEQ ID NO: 47)] provided by the company offering sequencing service (GATC Biotech AG, Germany) on the 454 sequencing system (454 Life Sciences). The primers sequences used for PCR amplification were:
RAG_F1: 5′-[…]-NNNN-[…] (SEQ ID NO: 57) and
RAG_R1: 5′-[…]-[…]-3′ (SEQ ID NO: 58) and CAPNS1_J3: 5′-[…]-NNNN-[…] (SEQ ID NO: 59) and CAPNS1_R3: 5′-[…]-[…]-3′ (SEQ ID NO: 60). Sequences specific to the locus are underlined. The sequence NNNN in primer F1 is a Barcode sequence (Tag) needed to link the sequence with a PCR product. The percentage of PCR fragments carrying insertion or deletion at the meganuclease cleavage site is related to the mutagenesis induced by the meganuclease through NHEJ pathway in a cell population, and therefore correlates with the meganuclease activity at its endogenous recognition site. 5000 to 10000 sequences were analyzed per conditions.

The next test concerns C1234 DNA target. Put plainly: In vitro binding assay, fluorescence anisotropy of fluorescein-labeled C1234 duplex. How it is done: FIG. 4: Spectrofluorimetric titration of fluorescein-labeled C1234 by I-Cre I wild type. 25 nM of C1234 duplex was incubated with increasing concentrations of I-Cre I [from 0 to 400 nM, only 0-80 nM shown] in binding buffer (10 mM Tris-HCl, 400 mM NaCl, 10 mM CaCl2, 10 mM DTT, pH8) at 25° C. After 30 minutes incubation, the fluorescence anisotropy of the mixture was recorded with a Pherastar Plus (BMG Labtech) operating in fluorescence polarization end point mode with excitation and emission wavelengths set to 495 and 520 nm respectively. Normalized fluorescence anisotropy is plotted as a function of active I-Cre I concentration. Apparent dissociation constant were determined by fitting raw data by an hyperbolic function (Ax=(A∞*[Meganuclease])/(Kd+[Meganuclease]) with Ax, the fluorescence anisotropy value obtained at a given meganuclease concentration, A∞, the fluorescence anisotropy value obtained at saturating concentration of meganuclease and Kd the dissociation constant of the equilibrium studied).
Fluorescein labeled C1234 oligonucleotides were synthesized and HPLC-purified by Eurogentec. To prepare C 1234 duplex corresponding to I-Cre I double strand DNA wild type target, C1234 forward (SEQ ID NO: 31, “a” strand below) labeled with Fluorescein on its 5′ end was mixed with 1 equivalent of C1234_reverse (SEQ ID NO: 32, “b” strand below) in 100 mM Tris-HCl, 50 mM EDTA, 150 mM NaCl, pH8. The mixture was heated to 95° C. for 2 min and then cooled down to 25° C. over 1 hour. C1234 duplex was eventually purified by anion exchange chromatography using a miniQ PE column (GE healthcare) pre-equilibrated with buffer A (20 mM Tris-HCl, pH7.4). Single stranded oligonucleotides and other contaminants were first discarded using a 0 to 360 mM NaCl step gradient and elution of pure C1234 duplex was performed with a 360-1000 mM NaCl linear gradient (5 column volumes). C 1234 duplex and fluorescein final concentrations were assessed by spectrophotometry using their respective extinction coefficients ε260nm=62900 M^−1 cm^−1 and ε495nm=83000 M^−1 cm^−1. As expected, a ratio [C1234 duplex]/[fluorescein]˜1 was obtained. The same procedure was used to prepare the different methylated forms of C 1234 duplex (C 1234_Me full composed of SEQ ID NO: 35+SEQ ID NO: 38, C1234_Me-6a/-5b composed of SEQ ID NO: 33+SEQ ID NO: 36, C1234_Me-3a/-2b composed of SEQ ID NO: 34+SEQ ID NO: 37, C1234_Me-3a composed of SEQ ID NO: 34+SEQ ID NO: 32, C1234_Me-2b composed of SEQ ID NO: 31+SEQ ID NO: 37, respectively where “a” and “b” designate each of the DNA strands; for example C1234 Me-6a/-5b is a duplex with methylations at position −6 on strand “a” and at position −5 on strand “b”, respectively) and the random target corresponding to a stretch of 12 GA repeats, (forward, SEQ ID NO: 39 and reverse, SEQ ID NO: 40). To investigate the binding of I-Cre I to C1234 duplex, 25 nM of C1234 duplex was incubated with increasing concentrations of I-Cre I (from 0 to 400 nM) in binding buffer (10 mM Tris-HCl, 400 mM NaCl, 10 mM CaCl2, 10 mM DTT, pH8) at 25° C. After 30 minutes incubation, the fluorescence anisotropy of the mixture was recorded with a Pherastar Plus (BMG Labtech) operating in fluorescence polarization end point mode with excitation and emission wavelengths set to 495 and 520 nm respectively. Apparent dissociation constants were determined by fitting raw data by an hyperbolic function (Ax=(A∞*[Meganuclease])/(Kd+[Meganuclease]) with Ax, the fluorescence anisotropy value obtained at a given meganuclease concentration, A∞, the fluorescence anisotropy value obtained at saturating concentration of meganuclease and Kd the dissociation constant of the equilibrium studied).

Regarding `Nc1ncn([C@H]2C[C@H](O)[C@@H](CO)O2)c(=O)n1` [5-aza-2′deoxycytidine, reference compound], the “mutagenesis, PCR fragments carrying a mutation” value in test [1] was 0.04%; in test [1] (listed as 5-aza-2′-deoxycytidine), 0.04 ± 0.05%.

B1: I-CreI: wild-type I-CreI meganuclease (… homing endonuclease), SEQ ID NO: 1, recombinant Cterm His-tag (protein, listed as Chlamydomonas reinhardtii)
chain: MNTKYNKEFLLYLAGFVDGDGSIIAQIKPNQSYKFKHQLSLTFQVTQKTQRRWFLDKLVDEIGVGYVRDRGSVSDYILSEIKPLHNFLTQLQPFLKLKQKQANLVLKIIEQLPSAKESPDKFLEVCTWVDQIAALNDSKTRKTTSETVRAVLDSLSEKKKSSP
modifications: C-terminal His-tag
As a reminder, the Kd is the concentration at which binding is half-saturated. Low readings indicate a tighter complex, high ones a looser complex. Take B1: the “affinity compared with unmethylated C1234” value with C1234 DNA target (C1234 Me-5b/-2b) is “much lower affinity”. For the same molecule, the Kd is over 1000 nM at C1234 DNA target (C1234_Me full (fully methylated)); 40.8 nM at C1234 DNA target (C1234_Me-2b); 24 nM at C1234 DNA target (C1234_Me-5b); over 1000 nM on C1234 DNA target (C1234_Me-5b/-2b); at most 2.5 nM at C1234 DNA target (C1234_Me-6a/-3a); at most 2.5 nM on C1234 DNA target (unmethylated C1234). Also, in the test on C1234 DNA target (C1234_Me full vs unmethylated), the “affinity for fully methylated C1234 lower than for unmethylated C1234” value is listed as “at least 400 times”. Further, the “factor by which methylation affected affinity with respect to unmethylated C1234” value with C1234 DNA target (C1234 methylated in position −2b) and in the test on C1234 DNA target (C1234 methylated in position −5b) was at most 10 throughout.
